US8088892B2, “Inhibitors of proteins from the Rho-GEF family” (Centre National de la Recherche Scientifique (C.N.R.S.), priority 2002, dated 2012)
“Also recorded” adds a separate entry of the source. Where two headings read alike, the source gives them in different places. Each block holds one molecule with its values, some of them ahead of it.

How the values were obtained:
[1] = molecular target: T1, Kalirin GEFD2 (KalGEFD2) (Rattus norvegicus, UniProt P97924); assay: In vitro GEF assay on RhoA; format: biochemical; design: key to in vitro GEF assay (inhibition): +++^2 and +^2 represent respectively a full and a partial (see FIG. 3) inhibitory effect; +++^2 and +^2 represent respectively a full and a partial (see FIG. 3) inhibitory effect; −−^2 represents a lack of inhibitory effect; conditions: for Effect on Kalirin GEFD2 exchange activity on RhoA: 20-fold molar excess, KalGEFD2 1.7 μM
T1 construct: KalGEFD2, a.a; 1850-2190, 65% identity with TrioGEFD2; made in house
Description: To test the specificity of TRIAPα inhibition in vitro, exchange experiments were performed either on RhoA with different RhoA-specific GEFs: Trio GEFD2 (0.4 μM), Kalirin GEFD2 (KalGEFD2, 1.7 μM), p63RhoGEF (Souchet et al., 2002) (0.4 μM) and Lbc (amino acids 172-598; Zheng et al., 1995) (0.4 μM), or on RhoG, with the RhoG-specific GEF domain of Trio (TrioGEFD1, 0.1 μM). Exchange assays were performed with the recombinant GEFs as described in FIG. 2A. Different concentrations of RhoGEFs were used to yield a similar nucleotide exchange efficiency. For each exchange factor, three independent experiments were done in absence (black bar) or in the presence (grey bar) of a 20-fold molar excess of TRIAPα.
(§1) An in vitro guanine nucleotide exchange (GEF) assay was used to test whether the TrioGEFD2-binding aptamers could inhibit the catalytic activity of TrioGEFD2 towards RhoA. For this purpose, the aptamers TRIAPα, TRIAPβ and TRIAPγ (including the Trx gene) were excised from pEG202 as EcoRI/NotI fragments and cloned into pGEX4T1 EcoRI/NotI. The aptamers were then expressed and purified from bacteria as GST fusion proteins, using standard procedures (Smith and Johnson, 1988). GTPase-GST fusion proteins were prepared, loaded with [^3H]GDP and the guanine nucleotide release assays were performed as described (Debant et al., 1996), using recombinant GST-TrioGEFD2 (a.a. 1848-2298), TrioDH2 (a.a. 1848-2096). For each point, 0.3 μM GTPase was mixed with or without 0.4 μM GEF in presence of non-labeled GTP, and the reaction mix was filtered after 0 min and 15 mm reaction at 25° C. The catalytic activity of TrioGEFD2 was thus measured by the decrease of the GTPase-associated radioactivity. The results are expressed as the ratio “exchange after 15 min over exchange after 0 min” (% bound [^3H]GDP-RhoA). To measure the effect of the aptamers on the exchange activity, a 20-fold molar excess of GST-TRIAPs was pre-incubated with GEFD2 (or GEFD1) for 30 min on ice before the exchange assay was carried out. For each experiment, data were obtained in triplicate.
The effect of GST-TRIAPα on other Rho-GEFs that display in vitro exchange activity on RhoA was next tested to investigate whether TRIAPα inhibition was specific of TrioGEFD2. The exchange activities of the RhoGEF Lbc (a.a. 1-424, FIG. 3)(Zheng et al., 1995) and Dbl (a.a. 495-826, data not shown) were not affected by GST-TRIAPα. The effect of GST-TRIAPα on the catalytic activity of RhoGEFs that display a high sequence similarity with TrioGEFD2 was then tested: the recently identified RhoA-specific p63RhoGEF (Souchet et al., 2002) (a.a. 149-374, 71.5% identity with TrioGEFD2, 0.4 μM) and the second Rho-GEF domain of the Trio family member Kalirin (KalGEFD2, a.a. 1850-2190, 65% identity with TrioGEFD2, 1.7 μM). Different concentrations of RhoGEFs were used to yield similar nucleotide exchange […]. For each exchange factor, three independent experiments were done in absence or in the presence of a 20-fold molar excess of GST-TRIAPα. […] Thus, the in vitro inhibitory activity of TRIAPα was selective for TrioGEFD2 (see table I for summary of the tested RhoGEFs).

[2] = molecular target: TrioGEFD2 (Homo sapiens, UniProt O75962); assay: In vitro guanine nucleotide exchange (GEF) assay on RhoA; format: biochemical; design: using recombinant GST-TrioGEFD2 (a.a. 1848-2298), TrioDH2 (a.a. 1848-2096); made in house; key to in vitro GEF assay (inhibition): +++^2 and +^2 represent respectively a full and a partial (see FIG. 3) inhibitory effect; +++^2 and +^2 represent respectively a full and a partial (see FIG. 3) inhibitory effect; −−^2 represents a lack of inhibitory effect; conditions: for Inhibition of TrioGEFD2 exchange activity on RhoA in vitro: 20-fold molar excess (8 μM) inhibitor, 0.4 μM GST-GEFD2, 0.3 μM [3H]GDP-RhoA, 15 min; for IC50: 0.4 μM GST-GEFD2, 0.3 μM RhoA, increasing amounts of GST-TRIAPα, read-out: apparent half-inhibitory concentration (inhibition of TrioGEFD2)
Description: For that purpose, aptamers, TrioGEFD2 and RhoA are expressed as GST-fusion proteins. RhoA is loaded with ^3H-GDP, and the release of GDP is followed after addition of GEFD2 in presence or in absence of the selected aptamers (as described in Debant et al., 1996).
A 20-fold molar excess (8 μM) of GST-aptamers TRIAPα, TRIAPβ (another TrioGEFD2 binding aptamer), TRIAPγ (another TrioGEFD2 binding aptamer) or the empty thioredoxine (Trx) were pre-incubated with 0.4 μM GST-GEFD2 (left side of FIG. 2A) or 0.4 μM GST-DH2 (right side of FIG. 2A), as indicated, before adding 0.3 μM of [^3H]GDP loaded GST-RhoA. The exchange activity was monitored by the decrease of [^3H]GDP bound-RhoA after 15 min (see Materials and Methods). The amount of [^3H]GDP bound-RhoA incubated without GEF (first bar on the left) was defined as 100% The values and errors bars were calculated from at least three independent experiments.
0.4 μM GST-GEFD2 were incubated with increasing amounts of GST-TRIAPα (grey bars) or GST (black bars), and the exchange assay was then performed on 0.3 μM RhoA, as described in A.
as §1

Effect on Kalirin GEFD2 exchange activity on RhoA [1]: slightly inhibited
Molecule: AREGADGAICGYNLATLVMLGPSERVFCPLCEPCSSDIYELM [TRIPα, 42-amino acid peptide corresponding to the variable region of TRIAPα]
Inhibition of TrioGEFD2 exchange activity on RhoA in vitro [2]: inhibits TrioGEFD2 activity to a similar level than TRIAPα; also recorded: as potent as TRIAPα

Effect on Kalirin GEFD2 exchange activity on RhoA [1]: weakly inhibits | Effect on Kalirin GEFD2 exchange activity on RhoA ([1]; listed as GST-TRIAPα): only weakly inhibited | in vitro GEF assay (inhibition) ([1]; RhoGEF KalirinDH2PH2): +^2 | IC50 ([2]; listed as OST-TRIAPα): ~4 µM | IC50 [2]: 4 µM | in vitro GEF assay (inhibition) ([2]; RhoGEF TrioDH2PH2): +++^2
B1: TRIAPα: aptamer of 154 amino acids: variable region of 42 amino acids inserted into the thioredoxin protein; tested as GST fusion (protein)
chain: MSDKIIHLTDDSFDTDVLKADGAILVDFWAEWCGPAREGADGAICGYNLATLVMLGPSERVFCPLCEPCSSDIYELMGPCKMIAPILDEIADEYQGKLTVAKLNIDQNPGTAPKYGIRGIPTLLLFKNGEVASATKVGALSKGQLKEFLDANLA
Inhibition of TrioGEFD2 exchange activity on RhoA in vitro [2]: potent inhibitor of TrioGEFD2 activity; also recorded: inhibits
